The source of these data is the nanobody polyreactivity screen of Harvey et al. (2022).

This data set is described as follows: yeast display, Sf9 membrane polyspecificity reagent, FACS + sequencing; frameworks hold sequencing errors. In a few lines: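 Using colony PCR, genes from sorted yeast display clones were amplified, then sequenced on MiSeq at 2 × 250 and filtered by CDR length. The clones had been stained with 10% biotinylated, detergent-solubilized Sf9 membrane reagent for 1 hour at 4 °C and sorted by FACS into low and high (top ~1%) gates on anti-HA and streptavidin fluorescence. Polyreactivity labels come from the gate of origin.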
On to “QVQLVESGGGLVQAGGSLRLSCAASGSTIGSYAMGWYRQAPGKERELVAVITGGGDTNYADSVKGRFTISRDNAKNTVYLQMNSLKPEDTAVYYCAAEGSFYRYHVGSDYWGQGTQLTVSS”, for which the “polyreactivity (PSR sort gate)” value was “low polyreactivity”.

Turning to “QVQLVESGGGLVQAGGSLRLSCAASGRTFSDYAMGWYRQAPAKERELVAAISKSGGRTYYADSVKGRFTISRDNAKNTVYLQMNSLKPEDTAVYYCAADPLTELAFYSWGQGTQVTVSS”, the “polyreactivity (PSR sort gate)” value is “high polyreactivity”.

For the sequence “QVQLVESGGGLVQAGGSLRLSCAASGRIFAWNAMGCYRQAPGKERELVAGISGSGGSTYYADSVKGRFTISRDNAKNTVYFQMNSLKPEDTAVYYCAARRRYDGWGGYWGQGTQVTVSS”, the “polyreactivity (PSR sort gate)” value is reported as “high polyreactivity”.

Turning to “QVQLVESGGGLVQAGGSLRLSCAASGSIFYDNAMGWYRQAPGKERELVAAISFRGSSTYYADSVKGRFTISRDNAKNTVYLQMNSLKPEDTAVYYCNTDIYVQYGWGQGTQVTVSS”, the “polyreactivity (PSR sort gate)” value is reported as “low polyreactivity”.

As for “QVQLVESGGGLVQAGGSLRLSCAASGSILSLYTMGWYRQAPGKERELVARISRSGGSTYYADSVKGRFTISRDNAKNTVYLQMNSLKTEDTAVYYCAARPYVVIYYGKSRGYYWGQGTQVTVSS”, the “polyreactivity (PSR sort gate)” value is reported as “high polyreactivity”.

“QVQLVESGGGLVQAGGSLRLSCAASGSTFKRYDMGGYRQAPGKECEFVAGISSRGSRTYYADSVTGRFTISRDNAKNSVYFKMNILKPEDSAVYYCAVSGNHVSPPYGFWGQGTQVNVSS”: the “polyreactivity (PSR sort gate)” value is “high polyreactivity”.

For the sequence “QVQLVDSGGGLVQAGGSLRLSCAASAFIFTRYAMGWYRQAPGKERELVAAISWIGTSTYYADSVKGRFTISRDNAKNTVYLQMNSLKPEDTAVYYCAKRSTSQSLQGVYWGLGTQVTVSS”, the “polyreactivity (PSR sort gate)” value was “high polyreactivity”.

For the sequence “QVQLVESGGGLVQAGGSLRLSCAASGRIFGVYTMGWYRQAPGKERELVAVISRRGGRTYYADSVKGRFTISRDNAKNTVYLQMNSLKPEDTAVYYCARDSTYSSYTSNDYWGQGTQVTVSS”, the “polyreactivity (PSR sort gate)” value is listed as “high polyreactivity”.

For “QVHLVDSGGGLVQAGGSLRLSCAASGRIFSPYAMGWYRQAPGKERELVASINYSGGSTYADSVKGRFTISRDNAKNTVYLQMNSLKPEDTAVYYCAAEDIGRYYRLDYWGQGTQVSVSS”, the “polyreactivity (PSR sort gate)” value is “low polyreactivity”.

“QVQLVESGGGLDQAGGSLRLSCAASGFTLDYYAMGWYRQAPGKERELVAAISWSGGRTYYADSVKGRFTISRDNAKNTVYLQMNSLKPEDTAVYYCNASPYGRKYGILADGDYWGQGTQVTVSS”: the “polyreactivity (PSR sort gate)” value is “high polyreactivity”.

Consider “QVQLVESGGGLVQAGGSLRLSCAASGSTFYQYVMGWYRQAPGKERELVADITNGGSTYYADSVKGRFTISRDNAKNTVYLQMNSLKPEDTAVYYCAADGGYYWYTYWYGGLYYWGQGTQVTVSS”, for which the “polyreactivity (PSR sort gate)” value is recorded as “high polyreactivity”.

Regarding “QVQLVESGGGLVQAGGSLRLSCAASGNTFSVYTMGWYRQAPGKERELVAAITRGGDSTYYADSVKGRFTISRDNAKNTVYLQMNSLKPEDTAVYYCAADHDGPYAGYDSWGQGTQVTVSS”, the “polyreactivity (PSR sort gate)” value was “low polyreactivity”.

In the case of “QVQLVESGGGLVQAGGSLRLSCAASGRIYSVYAMGWYRQAPGKERELVAAIRSGDRTNYADSVKGRFTISRDNAKNTVYLQMNSLKPEDTAVYYCAAVQRPYYYWGQGTQVTVSS”, the “polyreactivity (PSR sort gate)” value is given as “high polyreactivity”.

Consider “QVQLVESGRGLVQAGGSLRLSCAASGRTFYFYAMGWYRQAPGKEREFVAAITSSGVSTYYADSVKGRFTISRDNAKNTVYFQMISQKPEDSAVYYCAADDWDWENDYWGQGTQVTVSS”, for which the “polyreactivity (PSR sort gate)” value is reported as “low polyreactivity”.

For the sequence “QVQLVESGGGLVQAGGSLRLSCASSGFSFLSYTMGWYRQAPGKERELVAAITSGGSTYYADSVKGRFTISRDNAKNTVYLQMNSLKPEDTAVYYCAVTYRWHTFIYDYWGQGTQVTVSS”, the “polyreactivity (PSR sort gate)” value was “low polyreactivity”.

“QDQLVESGGGLVQAGGSLRLICAASGFTFRWYSMGWYRQAPGKERELVADISRGGSTNYADSVKGRFTISRDHAKNSVYLQMNSLTPEDTAVFYCAATQRKYGYKSYYYWGQGTQVTVSS”: the “polyreactivity (PSR sort gate)” value is on record as “high polyreactivity”.

Turning to “QVQLVESGGGLVQAGGSLRLSCAASGINFESYVMGWYRQAPGKERELVARISYSGGSTYYADSVKGRFTISRDNAKNTVYLQMNSLIPEDTAVYYCNARYLFSGRYSRRMEYWGQGTQVTVSS”, the “polyreactivity (PSR sort gate)” value is given as “high polyreactivity”.

“QVQLVESGGGLVQAGGSLRLSCAASGYTFNKYAMGWYRQATGKGRELVATIRNGGNTYYADSVKGRFTISRDNAKITVYFQMNSLKPEDTAVYYCAATVRGVGYRYYYWGQGTQVTVSS”: the “polyreactivity (PSR sort gate)” value was “high polyreactivity”.

Take “QVQLVESGGGLVQAGGSLRLSCAASGRIGYYVMGWYRQAPGKERELVAAISRSGDSTYYADSVKGRFTISRDNAKNTVYLQMNSLKPEDTAVYYCAAASGWRYFYKYDYWGQGTQVTVSS”: the “polyreactivity (PSR sort gate)” value is recorded as “high polyreactivity”.

“QVQLVESGGGLVQAGGILRLSCASSGRTFKSYTMGWYRQAPGKERELVASISVSGGRTYYADSVKGRFTISRDNAKNTVYLQMNSLKPEDTAVYYCAAYYVHYRPVRGYDYWGQGTEVTVSS”: the “polyreactivity (PSR sort gate)” value was “high polyreactivity”.

Take “QVQLVESGGGLVQAGGSLRLICAASGITFSYYALGRSRQAPGKERELVAAISVTGGSTYYADSVKGRFTISRDNAKNTVYLQMNSLKPEDTAVYYCAADSYYYDGDYWGQGTQVTVSS”: the “polyreactivity (PSR sort gate)” value is given as “high polyreactivity”.

Regarding “QVQLVESGGGLVQAGGSLRLSCAASGTTFYNYAMGWYRQAPGKERELVAAITSSGGSTYYADSVKGRFTISRDNAKNTVYLQMNSLKPEDTAVYYCNAVDGYGLVHSISTYEMDYWGQGTQVTVSS”, the “polyreactivity (PSR sort gate)” value is reported as “low polyreactivity”.

In the case of “QVQLEESGGGLVQAGGSLRLSCAASGFNFAAYTMGWNRQAPGKEREWVAGISKRGGTTYYADSVKGRFTISRDNAKNTVYLQMNSLKPEDTAVYYCAASRYVTTSRYQYNHWGQGTQVTVSS”, the “polyreactivity (PSR sort gate)” value is listed as “high polyreactivity”.

Consider “QVQLVESGGGLVEAGGSLRLSCAASGRISQSNAMGWYRQAPGKESELVAAISWRGGSTYYADSVKGRFTISRDNAKNTVYLEMNSLKPEDTAVYYCGAKSWYAFYYRHPYDYWGQGTQVTVSS”, for which the “polyreactivity (PSR sort gate)” value is “high polyreactivity”.

“QVQLVESGGGLVQAGGSLRLICAASGFIFGHNAMGWYRQAPGKERELVAAITWRGRTYYADSVKGRFTISRDNAKNCVYLQMNSMKPEDTSVFSCNAYVRYGYDYWGQGTQVTVSS”: the “polyreactivity (PSR sort gate)” value was “high polyreactivity”.

On to “QVQLVESGGGLVQAGGSLRLSCAASGRTFNRYAMGWYRQAPGKEREFVASITRSGGSTYYADSVKGRFTISRDNAKNTVYLQMNSLKPEDTAVYYCAAQLRYKYDYWGQGTQVTVSS”, for which the “polyreactivity (PSR sort gate)” value was “high polyreactivity”.

As to “QVQLVESGGGLVQAGGSLGLSCAASGRTFYRNAMGWYRQAPGIERELVAPITNGGRTYYADSVKGRFTISRDNAKNTVNLQMNSLKPEDTAVYYCNALDAKLSEYEYWGQGTEVTVSS”, the “polyreactivity (PSR sort gate)” value was “low polyreactivity”.

Regarding “QVQLVESGGGLVQAGGSLRLSCAASGRTFRSYTMGWYRQAPGKERELVARISSSGGRTYYADSVKGRFTISRDNAKNTVYLQMNSLKPEDTAVYYCAAAIVSYGRNDYWGQGTQVTVSS”, the “polyreactivity (PSR sort gate)” value is given as “high polyreactivity”.

Consider “QVQLVESGGGLVQAGGSLRLSCAASGSTFGQYAMGWYRQAPGKERELVAAISSGGRTNYADSVKGRFTISRDNAKNTVYLQMNSLKPEDTAVYYCAARYYFPFRRFRRMDYWGQGTQVTVSS”, for which the “polyreactivity (PSR sort gate)” value was “high polyreactivity”.

“QVQLVESGGGLVQAGGSLRLSCAASGSTFILYAMGWYRHAPGKERELVAAISRSTGITYYADSVKGRFTISRDNAKNTVYLQMNSLKPEDTAGYYCAADAWGYNDYDASYSTGYEYWGQGTQVTVSS”: the “polyreactivity (PSR sort gate)” value is given as “high polyreactivity”.

On to “QVQLQESGGGLVQAGGILRLSCAACGNIFPSAVMGWYRQALAKEREFVATINSGSNTYYADSVKGRFTISRDNAKNTVYLQMNSLKLEDTAVYYCAAYFKLQAWHTYWGQGTQVTVSS”, for which the “polyreactivity (PSR sort gate)” value is “low polyreactivity”.

As to “QVQLVESGGGLVQAGGSLRLSCAASGSPFYAYAMGWYRQAPGKERQLVAAITYRDGRTNYADSVKGRFTISRDNAKNTVYLQMNSMKPEDTEVYYCARITGFTVRRYDYWGQGTQVTVSS”, the “polyreactivity (PSR sort gate)” value was “high polyreactivity”.

With “QVQLVESRGGLVQAGGSLRLSCAASGRTFHRNAMGWYRQPPGKERELVAAITGDGRTNYADSVKGRFTISRDNAKNTVYLQMNSLKPVDTAVYYCAARFSYRSYDYWGQGTQVTVSS”, the “polyreactivity (PSR sort gate)” value was “low polyreactivity”.

As to “QVQLVESGGGLVQAGGSLRLSCAASGFTFSQYVMGWSRQAPGKERELVASITGKGGSTRYADSVKGRFTISRDNAKNTVYLQMNSLKQEDTAVYYCAARYVYFRWGSFDYWGQGTQVTVSS”, the “polyreactivity (PSR sort gate)” value is “high polyreactivity”.

As to “QVQLVESGGGLVQAGGSLRLSCAASGLTFYLYAMGWYRPAPGKERELVAGISYRGASTYYADSVKGRFTISRDNAKNTVYLQMNSLKPEDTAVYYCAADDTTPNGVYWGQGTQVTVSS”, the “polyreactivity (PSR sort gate)” value is on record as “low polyreactivity”.

As for “QVQLVESGGGLVQAGGSLRLSCAASGSTFSGYAMGWYSQAPGKERELVAAISWSGGRTYYADSVNGRFTISRDNAKNTVYLQMNSLKPEDTAVYYCDAVRKSAYEYWGQGTQVTVSS”, the “polyreactivity (PSR sort gate)” value is recorded as “high polyreactivity”.

Regarding “QVQLVESGGGLVQAGGSLRLSCAASGSTFRRNAMGWYRQAPGKERELLAAISRRGGSTYYADSVKGRFTISRDNAKNTVYLQMNSLKPEDTAVYYCASAVTTYSQGQGVYSWGQGTQVTVSS”, the “polyreactivity (PSR sort gate)” value is on record as “high polyreactivity”.

Turning to “QVQLVESGGGLVQAGGSLRLSCAASGSTFGKYAMGWYRQAPGKERELVAAISKSGGSTYYADSVKGRFTISRDNAKNTVYLQMNSLKPEDTAVYYCAADVTYGTKWAYDYWGQGTQVTVSS”, the “polyreactivity (PSR sort gate)” value is given as “high polyreactivity”.

Regarding “QVQIVESGGGLVQAGGSVRLSCAASGRTFYYNAMGWYRQAPGKERELVASISSSDSDTYYADSVKGRFTISRDNAKNTVYLQMNSLKPEDTAVYYCAAEYYWDLTFTRYDYWGQGTQVTVSS”, the “polyreactivity (PSR sort gate)” value is listed as “low polyreactivity”.

For the sequence “QVQLVESGGGLVQAGGSLRLSCAASGSTFYYYAMGWYRQAPGKERELVASISDDGSTNYADSVKGRFTISRDNAKNTVYLQMNSLKPEDTAVYYCAAVWWHQFGSAWYQMGYWGQGTQVTVSS”, the “polyreactivity (PSR sort gate)” value is “low polyreactivity”.

“QVQLVDSGGGLVQAGGSLRLSCAASGFTFSAYAMGWYRQAPGKERELVAAISWSGSRTYYADSVKGRFTISRDNAKNTVYLQMNSLKPEDTAVYYCAKEPYDTFGFYEYDYWGQGTQVTVSS”: the “polyreactivity (PSR sort gate)” value is on record as “low polyreactivity”.
